Test [1] concerns the target FcγRIIIa (UniProt P08637). The experiment in a line: SPR (Biacore T200, single cycle kinetics, 25 C); antibody captured by anti-human Fab, FcγRIIIa as analyte; 1:1 Langmuir fit. A general note: SPR reads the build-up and loss of mass on a sensor chip optically.
Test [2] addresses FcγRIIIa (UniProt P08637). The experiment in a line: SPR; fold improvement in binding avidity, commercial rituximab as the reference.
Test [3] has as its target FcγRIIIa (UniProt P08637). The experiment in a line: SPR; fold improvement in binding avidity against commercial rituximab.

FcγRIIIa, sequence (P08637 17-208 limits assumed): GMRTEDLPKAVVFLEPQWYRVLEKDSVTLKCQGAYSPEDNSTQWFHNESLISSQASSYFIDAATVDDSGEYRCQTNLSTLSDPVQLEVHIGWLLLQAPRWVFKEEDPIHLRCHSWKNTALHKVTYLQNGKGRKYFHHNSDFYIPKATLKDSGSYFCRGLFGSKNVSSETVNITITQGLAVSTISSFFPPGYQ

Take “Rituximab (commercial sample; Rituxan, Roche) (antibody)”: in the test with FcγRIIIa [1], the Kd (in general, a measure of binding affinity in units of concentration) was 306 nM; the koff (commonly the rate constant with which the complex falls apart) stood at 0.0705 s⁻¹; the kon (usually the rate constant with which the complex forms) stood at 231000 M⁻¹ s⁻¹. The substance also came in with a Fold with FcγRIIIa [2] of 1 fold.
In the test with FcγRIIIa [1], “Rituximab IgG1 homogeneous glycoform with α2,6-linked 3F^ax-Neu5Ac-terminated biantennary N-glycan (without core fucose) (antibody)” came in with a Kd of 8.18 nM, a koff of 0.002 s⁻¹ and a kon of 244000 M⁻¹ s⁻¹. The Fold in the test with FcγRIIIa [3] was 37.4 fold.
As to “Rituximab IgG1 homogeneous glycoform with α2,6-linked Neu5Ac-terminated biantennary N-glycan (G2S2, without core fucose) (antibody)”, in the test with FcγRIIIa [1], the Kd amounted to 7.67 nM, the koff is 0.00206 s⁻¹ and the kon was 268000 M⁻¹ s⁻¹. The substance further displayed a Fold with FcγRIIIa [3] of 39.9 fold.
